The target of the experiment is T1, rat CaSR (rCaSR) (Rattus norvegicus, UniProt P48442).
T1 construct: mGlu5 signal peptide (N); expressed in transfected cells; host or cells: HEK293A, transient transfection
T1 sequence (P48442 20-1079): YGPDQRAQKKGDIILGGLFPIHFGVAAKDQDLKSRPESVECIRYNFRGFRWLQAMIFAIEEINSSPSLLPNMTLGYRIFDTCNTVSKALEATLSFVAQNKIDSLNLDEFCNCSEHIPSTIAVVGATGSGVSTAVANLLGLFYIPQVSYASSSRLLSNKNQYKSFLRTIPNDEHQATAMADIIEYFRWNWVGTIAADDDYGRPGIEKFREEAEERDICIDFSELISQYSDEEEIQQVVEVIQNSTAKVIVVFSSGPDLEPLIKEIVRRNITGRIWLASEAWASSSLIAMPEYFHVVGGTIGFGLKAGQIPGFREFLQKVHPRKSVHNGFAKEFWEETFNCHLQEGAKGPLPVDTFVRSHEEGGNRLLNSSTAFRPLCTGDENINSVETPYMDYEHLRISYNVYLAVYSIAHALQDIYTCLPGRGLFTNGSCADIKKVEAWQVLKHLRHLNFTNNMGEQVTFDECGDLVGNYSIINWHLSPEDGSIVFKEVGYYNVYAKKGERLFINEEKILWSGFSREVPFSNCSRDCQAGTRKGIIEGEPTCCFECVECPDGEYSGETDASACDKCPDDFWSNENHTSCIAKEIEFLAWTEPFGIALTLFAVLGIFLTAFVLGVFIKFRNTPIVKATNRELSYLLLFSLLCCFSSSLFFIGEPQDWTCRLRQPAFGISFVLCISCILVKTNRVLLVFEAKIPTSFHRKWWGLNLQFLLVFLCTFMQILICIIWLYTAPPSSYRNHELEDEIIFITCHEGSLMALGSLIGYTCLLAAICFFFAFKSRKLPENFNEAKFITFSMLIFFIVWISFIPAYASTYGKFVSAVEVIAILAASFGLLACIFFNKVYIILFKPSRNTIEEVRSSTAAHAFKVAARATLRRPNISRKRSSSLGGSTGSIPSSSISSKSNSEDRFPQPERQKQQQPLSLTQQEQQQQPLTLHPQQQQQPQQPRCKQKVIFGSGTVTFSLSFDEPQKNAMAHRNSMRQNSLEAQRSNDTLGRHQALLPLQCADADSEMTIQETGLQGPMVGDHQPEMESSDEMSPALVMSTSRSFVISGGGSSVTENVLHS
Put plainly: IP1 accumulation assay, HEK293A cells transiently transfected with HA-rCaSR WT. It is filed as cell-based. The note with it: IP1 accumulation at EC20 Ca2+. From the text: The rat and human CaSR orthologs have an overall sequence identity of 93.6% and an ECD sequence identity of 95.7% (SEQ ID NO:1 aligned with SEQ ID NO:2). Thus, differences in CaSR nanobody activity are unlikely to be observed. […] Besides CaSR Nb36, similar results were obtained among the nanobodies that originate from the same family (FIGS. 7E and 7F). For Nb36, the increase in maximum response relative to Nb4 and Nb11 previously observed with human CaSR was absent (FIGS. 7C and 7F). The binding site of these nanobodies still remains to be found. The difference in CaSR Nb36 maximum response and the high interspecies sequence identity could bring us one step closer to finding the binding site for CaSR Nb4, Nb11 and Nb36.
All cell lines utilized in this study were grown at 37° C. and 5% CO2. The HEK293A (RRID: CVCL_6910) and stable Flp-In HEK293 cells were cultured in Dulbecco's Modified Eagle Medium (DMEM, #31966021) supplemented with 10% dialyzed Fetal Bovine Serum (dFBS) and 1% 10,000 units/mL penicillin and 10,000 μg/mL streptomycin mixture (pen/strep). The stable Flp-In CHO cells were cultured in F-12K medium (#21127022) supplemented with 10% dFBS and 1% pen/strep. Additionally, the stable Flp-In HEK293 and Flp-In CHO cell lines were cultured in the presence of respectively 200 and 500 μg/mL hygromycin B. For pharmacological characterization, Flp-In HEK293 HA-hCaSR WT cells were seeded in poly-D-lysine-coated clear 96 well tissue culture plates (Corning, Corning, N.Y., USA) at a density of 50,000 cells/well 18 h prior to assay. Experiments with HA-rCaSR WT and HA-hCaSR S170A required transient transfection of HEK293A cells 24 h prior to assay. DNA construct and Lipofectamine 2000 were diluted in Opti-MEM and mixed together after 5 minutes incubation at room temperature. For HA-rCaSR WT, 30 ng/well rCaSR DNA diluted in 25 μL/well Opti-MEM was mixed with 0.25 μL/well Lipofectamine 2000 in 25 μL/well Opti-MEM. For HA-hCaSR S170A, 40 ng/well […] DNA diluted in 25 μL/well Opti-MEM was mixed with 0.25 μL/well Lipofectamine 2000 in 25 μL/well Opti-MEM. The DNA:Lipofectamine 2000 mixtures were incubated 20 minutes at room temperature after which 50 μL/well was added to a poly-D-lysine-coated clear 96 well tissue culture plate. Next, 100 μL/well of a 400,000 cells/mL HEK293A cell solution prepared in culture media was added and the plate was placed at 37° C. and 5% CO2 (final cell density 40,000 cells/well).
Inositol monophosphate (IP1) accumulation was measured using the commercially available HTRF® IP1 accumulation kit (Cisbio Bioassays, Codolet, France) and an EnVision multimode plate reader (PerkinElmer, Waltham, Mass., USA). Unless stated otherwise, the cells were washed once with 100 μL/well assay buffer and stimulated for 30 minutes at 37° C. with 50 μL/well ligand(s) diluted in assay buffer supplemented with 20 mM LiCl. Following stimulation, the cells were washed once with 100 μL/well and lysed for 30 minutes at room temperature with 30 μL/well lysis buffer provided with the kit. The lysed cells were diluted 1:2 with assay buffer after which 10 μL/well was pipetted to a white 384-well OptiPlate (PerkinElmer, Waltham, Mass., USA). Next, 10 μL of a detection solution consisting of 2.5% IP1-d2 conjugate and 2.5% anti-IP1 antibody diluted in assay buffer was added to each well. Fluorophore emissions were measured after the plate was stored in the dark for 1 h. The 615/665 nm emission ratios measured upon excitation at 340 nm were converted to IP1 concentrations with an IP1 standard curve according to the manufacturer's instructions.

Setting [1] is: three independent experiments in triplicate.

For the molecule `COc1cccc([C@@H](C)NCCCc2ccccc2Cl)c1` [NPS R-568, reference compound], the “Max. response (fold over basal ± S.E.M.), rat ortholog” value was found to be 3.43 ± 0.76 fold over basal. For the same molecule, the EC50 (three independent experiments in triplicate, read-out: Potency (pEC50 ± S.E.M.), rat ortholog (converted)) was 257 nM.

B1: Nb4: llama-derived CaSR-specific nanobody acting as PAM, SEQ ID NO:5 (protein)
VHH: QVQLVESGGGLVQAGGSLRLSCAASGRTFSTYRMGWFRQGLGKEREFVAAITANGVRTFYTDSVKGRFTISRDNAKNTLYLQMNSLQPDDTAVYLCAARRKGIFTVQQAQDITDWDYWGQGTQVTVSS
modifications: CaSR Nb4
B1: the “Max. response (fold over basal ± S.E.M.), rat ortholog” value is on record as 3.03 ± 0.63 fold over basal. Further, under setting [1], the “Potency (pEC50 ± S.E.M.), rat ortholog” value turned out to be 7.09 ± 0.09.

B2: Nb15: llama-derived CaSR-specific nanobody acting as PAM, SEQ ID NO:10 (protein)
VHH: QVQLVESGGGLVQAGGSLRLSCAASGRTFNNYHMAWFRQAPGKEREFAAAISRRAGTTYYADSVKGRFTISRDNAKNTVYLQMNSLKPEDTAVYYCAADPDTYGVSYLARKYDYWGQGTQVTVSS
modifications: CaSR Nb15
For B2, the “Max. response (fold over basal ± S.E.M.), rat ortholog” value amounted to 2.88 ± 0.13 fold over basal. Also, the “Potency (pEC50 ± S.E.M.), rat ortholog” value under setting [1] came to 6.31 ± 0.07.

B3: Nb10: llama-derived CaSR-specific nanobody acting as PAM, SEQ ID NO:3 (protein)
VHH: QVQLVESGGGLVQPGDSLRVSCAASGGSFRSYAMAWFRQAPGKEREFVAAMSGTYGSTIYSDSMKGRFTISRDNAKKMVYLRMNSLRPEDTAVYYCAGYYSGAYYGTPKTDYTEYDSWGQGTQVTVSS
modifications: CaSR Nb10
In the case of B3, the “Max. response (fold over basal ± S.E.M.), rat ortholog” value is 2.89 ± 0.13 fold over basal. For the same molecule, the “Potency (pEC50 ± S.E.M.), rat ortholog” value under setting [1] was determined as 6.29 ± 0.02.

B4: Nb37: llama-derived CaSR-specific nanobody acting as PAM, SEQ ID NO:4 (protein)
VHH: QVQLVESGGGLVQPGDSLRVSCAASGGSFRSYAMAWFRRAPGKEREFVAAMSGTYGSTIYADSMKGRFTISRDNAKKMVYLRMNSLRAEDTAVYYCAGYYSGAYYGTPKTDYTEYDSWGQGTQVTVSS
modifications: CaSR Nb37
In the case of B4, the “Max. response (fold over basal ± S.E.M.), rat ortholog” value is 3.07 ± 0.39 fold over basal. For the same molecule, under setting [1], the “Potency (pEC50 ± S.E.M.), rat ortholog” value was 6.00 ± 0.28.

B5: Nb5: llama-derived CaSR-specific nanobody, weakest PAM, SEQ ID NO:8 (protein)
VHH: QVQLVESGGRLVQDGGSLRLSCAASGLTFSDYSMGWFRQVPGKEREFVAVIRRSNDSTYYADFVKGRFTISRDNAKNTVYLQMNSLQPEDTAVYSCAADRGGVGLTSAQTYAYWGQGTQVTVSS
modifications: CaSR Nb5
For the molecule B5, the “Max. response (fold over basal ± S.E.M.), rat ortholog” value is given as 1.28 ± 0.12 fold over basal.

B6: Nb36: llama-derived CaSR-specific nanobody acting as PAM, SEQ ID NO:7 (protein)
VHH: QVQLVESGGGLVQAGESLRLSCAASGRTFSSYRMGWFRQGPGKEREFVAAITATGVRTYYADSVKGRFTISRDNAKNTVYLQMNSLQPDDTAVYLCAARRKAIFSVQQALTITDYDDWGQGTQVTVSS
modifications: CaSR Nb36
For the molecule B6, the “Max. response (fold over basal ± S.E.M.), rat ortholog” value is on record as 3.10 ± 0.12 fold over basal. Also, the “Potency (pEC50 ± S.E.M.), rat ortholog” value under setting [1] turned out to be 6.78 ± 0.03.

B7: Nb2: llama-derived CaSR-specific nanobody acting as PAM, SEQ ID NO:9 (protein)
VHH: QVQLVESGGGLVQAGSSLRLSCAASGRTFSNYRMAWFRQAPGKEREFVAVISRGGGGADYADSVKGRFTISRDNVKNTVSLQMNSLKPEDTAVYFCAARISGFSYYTSVDRYDYWGQGTQVTVSS
modifications: CaSR Nb2
Turning to B7, the “Max. response (fold over basal ± S.E.M.), rat ortholog” value was determined as 3.01 ± 0.51 fold over basal. Also, the “Potency (pEC50 ± S.E.M.), rat ortholog” value under setting [1] was determined as 6.46 ± 0.07.

B8: Nb11: llama-derived CaSR-specific nanobody acting as PAM, SEQ ID NO:6 (protein)
VHH: QVQLVESGGGLVQAGGSLRLSCAASGRTFSTYRMGWFRQGPGKEREFVAAITATGVKTYYTDSVKGRFTISRDNAKNTVYLQMNSVQPEDTAVYSCAARIKAIFTAQQAATITDYDYWGQGTQVTVSS
modifications: CaSR Nb11
With B8, the “Max. response (fold over basal ± S.E.M.), rat ortholog” value was 2.90 ± 0.23 fold over basal. Besides, the “Potency (pEC50 ± S.E.M.), rat ortholog” value under setting [1] is listed as 6.24 ± 0.11.
